The nanobody polyreactivity screen of Harvey et al. (2022)

Experiment: yeast display, Sf9 membrane polyspecificity reagent, FACS + sequencing; frameworks hold sequencing errors
Summary of the method: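 Galactose induction of a Saccharomyces cerevisiae BJ5465 synthetic nanobody display library ran 36–48 hours. The cells were then stained for 1 hour at 4 °C with 10% biotinylated, detergent-solubilized Sf9 membrane reagent, pulled down on streptavidin microbeads and FACS-sorted into low and high (top ~1%) gates on expression and reagent-binding fluorescence. Labels for polyreactivity follow the gate of origin.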

Sequence | polyreactivity (PSR sort gate)
QVQLVESGGGLVQAGGSLRLSCAASGSIFNVNAMGWYRQAPGKERELVAAISSGGNTNYADSVKGRFTFSRDNAKNTVYLQMNRLKPEDTAVYYCATGGYYSAIVYGGYDYWGQGTQVTVSS | low polyreactivity
QVQLVESGGGLVQAGGSLRLSCAASGSIFNWYAMGWYTQAPGKERELVAAISWRCGSTYYADSVKGRFTISRDNAKITVYLQMNSLKPEDTAVYYCAADGGADHMDYWGQGTQVTVSS | high polyreactivity
QVQLVESGGGLVQAGGSLRLSCAASGSIFNYNAMGWYRQAPGKERELVAGITTSGGSTYYADSVKGRFTISRDNAKKTVYLQMNSLKPEDTAVYYCAAYDYISSTYFLDDYWGQGTQVTVSS | low polyreactivity
QVQLVESGGGLVQAGGSLRLSCAASGSIFNYNAMGWYRQEPGKERVLVATINKRAGRTYYADSVKGRFTISRDNAKNTFYLQMNSLNPEETAVYYCAAYGRNYSIYDYWGQGTQVTVSS | high polyreactivity
QVQLVESGGGLVQAGGSLRLSCAASGSIFNYNTMGWYRQAPGKERELVADISWSGGSTYYADSVKGRFTISRDNAKNTVYLQMNSLKPEDTAVYYCAADFGLFPYVGTGYYFWGQGTQVTVSS | low polyreactivity
QVQLVESGGGLVQAGGSLRLSCAASGSIFNYYAMGWYRQAPGKEMELVAGITTSGGYTYYADSVKGRFTISSDNAKNTVYLQMNSLKPEDTAVYYCAAYDYISSTYFLDDYWGQGTQVTVSS | low polyreactivity
QVQLVESGGGLVQAGGSLRLSCAASGSIFNYYAMGWYRQAPGKERELVAAITYGGASTYYADSVKGRFTISRDNAKNTVYLQMNSLKPEDTAVYYCAADSFTRWVFYRSTVRGFGYWGQGTQVTVSS | high polyreactivity
QVQLVESGGGLVQAGGSLRLSCAASGSIFNYYGMGWYRQAPGKEREFVAAITSNGGTTYYADSVKGRFTISRDNAKNTVYLQMNSLKPEDTAVYYCADRPRYYWRGYDYWGLGTQVTVSS | high polyreactivity
QVQLVESGGGLVQAGGSLRLSCAASGSIFNYYVMGWYRQAPGKERELVAGIRWNGGSTYYADSVKGRFTISRDNAKNTVYLQMNSLKPEDTAVYYCAAQAWWGYYSRGPMDYWGQGTQVTVSS | low polyreactivity
QVQLVESGGGLVQAGGSLRLSCAASGSIFNYYVMGWYRQAPGKERELVAGIRWNGGSTYYADSVKGRFTISRDNAKNTVYLQMNSLKPEDTAVYYFAAQAWWGYYSRGPMDYWGQGTQVTVSS | low polyreactivity
QVQLVESGGGLVQAGGSLRLSCAASGSIFPANAMGWYRQAPGKERELVAAISGRGGRTYYADSVKGRFTISRDNAKNTVYLQMNSLKPEDTAVYYCNKVGPLVGGVKYYYWGQGTQVTVSS | high polyreactivity
QVQLVESGGGLVQAGGSLRLSCAASGSIFPAYALGWYRPAPGKERELVAAITSSCGSTYYADSVKGRFTISRDNAKNTVYLQMNSLKPEDTAVYYCATVYPGDSYVYRFDYWGQGTQVTVSS | low polyreactivity
QVQLVESGGGLVQAGGSLRLSCAASGSIFPAYAMGWYRQAPGKEREFVAAISGTGGITYYADSVKGRFTISRDNAKNTVYLQMNSLKPEDTEVYYCAAPVYNRYYYWGQGTQVTVSS | low polyreactivity
QVQLVESGGGLVQAGGSLRLSCAASGSIFPDNVMGWYRQATGKERELVAAISRTGGSTYYADSVKGRFTISRDNAKNTVYLQMNSLKPEDTAVYYCNAKYRVPYAVGGDYGYWGQGTQVTVSS | high polyreactivity
QVQLVESGGGLVQAGGSLRLSCAASGSIFPDYALGWSRQAPGKESELVAAITRRDDSTYYADSVKGRFTISRDKAKNTVYLQMNSLKPEDTAVYYCNASALDPLYAKDDYWGQGTQVTVSS | low polyreactivity
QVQLVESGGGLVQAGGSLRLSCAASGSIFPDYAMGWYRQAPGKERELVAAIDTSTTDTYYADSVKGRFTISRDNAKNTVYLQMNSLKPEDTAVYYCAADAYDDPYGYWGQGTQVTVSS | high polyreactivity
QVQLVESGGGLVQAGGSLRLSCAASGSIFPDYAMGWYRQAPGKERELVAAITTSGGNTYYADSVKGRFTISRDNAKNTVYLQMNSLKPEDTAVYYCAAEITYSYPGSPRRRDYWGQGTQLTVSS | low polyreactivity
QVQLVESGGGLVQAGGSLRLSCAASGSIFPDYAMGWYRQAPGKERELVAAITWRDDSTYYADSVKGRFTISRDNAKNTVYLQMNSLKPEDTAVYYCNASALDPLFAKDDYWGQGTQVTVSS | low polyreactivity
QVQLVESGGGLVQAGGSLRLSCAASGSIFPEYAMGWYRQAPGKEREFVATIRWSGDSTYYADSVKGRFTISRDNAKNTVYLQMNSLKPEDTAVYYCAADQGRYGIIGWDDYWGQGTQVTVSS | low polyreactivity
QVQLVESGGGLVQAGGSLRLSCAASGSIFPFYAMGWYRHAPGKERELVASISSGGSTNYADSVKGRFTISRDNAKNTVYLQMNSLKPEDTAVYYCNAVVPYRWDTWFQVVYPESYDYWGQGTQVTVSS | low polyreactivity
QVQLVESGGGLVQAGGSLRLSCAASGSIFPFYAMGWYRQAPGKERELVAAINYSAGSTYYADSVKGRFTISRDNAKYTVYLQMNSLKPEDTAVYYCAKEVSAYEMDYWGQGTQVTVSS | low polyreactivity
QVQLVESGGGLVQAGGSLRLSCAASGSIFPFYAMGWYRQAPGKERELVAAISSRGGSTYYADSVKGRFTISRDNAKNTVYLQMNSLKPEDTAVYYCAARDYSIKVRLGYWGQGTQVTVSS | low polyreactivity
QVQLVESGGGLVQAGGSLRLSCAASGSIFPFYAMGWYRQAPGKERELVAAITYSGGSTFYADSVKGRFTISRDNAKNTVYLQMNSLKPEDTAVYYCNAVWRFGSSKYYYWGHGTQVTVSS | high polyreactivity
QVQLVESGGGLVQAGGSLRLSCAASGSIFPFYAMGWYRQAPGKERELVAVISTRGGSTYYADSVKGRFTISRDYAKNTVYFQMKSLKPEDTAVYYCAAKSVYRMGYWGQGTQVTVSS | high polyreactivity
QVQLVESGGGLVQAGGSLRLSCAASGSIFPFYAMGWYRQAPGKEREMLAANSDRGGSTYYADSVKGRFTISRDNAKNTVYLQMNSLKPEDTAVYYCNADRARFTYRATTYTGRYDYWGQGTQVTVSS | low polyreactivity
QVQLVESGGGLVQAGGSLRLSCAASGSIFPGNAKGWYRQAPGKERELVASINWSGGSTYYADSVKGRVTISRDNAKNTVYVQMNSLKPEDTAGYYCNARAFRQGHVEYDYWGQGTQVTVSS | low polyreactivity
QVQLVESGGGLVQAGGSLRLSCAASGSIFPGNALGWYRQAPGKERELVAVIDFSGASTYYADSVKGRFTISRDNAKNTVYLQMNRLKPEDTADYWGQGTQVTVSS | low polyreactivity
QVQLVESGGGLVQAGGSLRLSCAASGSIFPGNAMGGYRQAPGKERELVAAIRGGGSTNYADSVKGRFTISRDTAKNTVYIQMNSLKPEDTAVYYCAAQGILGSYDYWGQGTQVTVSS | low polyreactivity
QVQLVESGGGLVQAGGSLRLSCAASGSIFPGNAMGWYRPAPGKERELVAVIDFSGASTYYADSVKGRYTISRDNAKNTVYLQMNCLKPEVTADFWGQGTQVTVSS | low polyreactivity
QVQLVESGGGLVQAGGSLRLSCAASGSIFPGYAMGWYRQAPGKERELVATITWSGGSTYYADSVKWRFTISRDNEKNTVYLQMNCLKPEDTAVYYCNADSNWYYQWNYYGLYDYWGQGTQVTVSS | low polyreactivity
